B1: d(G3T)4 (structured_DNA)
DNA: GGGTGGGTGGGTGGGT
B2: dG7 (structured_DNA)
DNA: GGGGGGG

Legend:
Hfq-CTR peptide [1] = target: T1, Hfq-CTR peptide (Escherichia coli, UniProt P0A6X3); test: EMSA; quadruplex annealed in water without salt; EMSA: quadruplex prepared in water (95 C 5 min, slow cooling), 20 min at room temperature; native 4-20% polyacrylamide gel in TAE pH 8.0 (40 mM Tris-acetate, 1); conditions: parallel G-quadruplex
T1 chain: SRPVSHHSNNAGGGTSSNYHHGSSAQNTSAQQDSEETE

Hfq-CTR peptide [2] = target: T1, Hfq-CTR peptide; test: EMSA?; method not stated for dG7; EMSA: quadruplex prepared in water (95 C 5 min, slow cooling), 20 min at room temperature; native 4-20% polyacrylamide gel in TAE pH 8.0 (40 mM Tris-acetate, 1); conditions: parallel G-quadruplex

Row | Binder | Kd (Hfq-CTR peptide [1]) [nM] | Kd (Hfq-CTR peptide [2]) [nM]
1 | B1 | 1060 ± 74 | –
2 | B2 | – | 981 ± 96

Source: PMC7603069, “Crucial Role of the C-Terminal Domain of Hfq Protein in Genomic Instability”
